Assay results published in the supplement of paper PMC7125110.
± gives the standard error. For some assays here: Fewer inactive variants are shown than the library holds.

B1: glmS ribozyme (parent)
chain: AUAAAAGCGCCAGAACUACAGAAAUGUAGUUGACGAGGAGGAGGUUUAUCGAAUUUUCGGCGGAUGCCUCCAAA

Assays:
Conditions in all cases: with glucosamine-6-phosphate
glucosamine-6-phosphate [1] = variants of: B1; test: kcat; higher = faster cleavage; RNA array
In short: (§1)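 Tiles bearing barcoded ribozyme variants, transcribed in situ by E. coli RNA polymerase on sequenced MiSeq chips, were imaged over ~14 h at 37 °C using a hybridised Cy3 probe. Glucosamine-6-phosphate was supplied at 40 μM to 10 mM in HEPES/KCl/Mg(OAc)2 buffer. kobs came from one- or two-exponential decay fits to normalised per-tile medians, and weighted Michaelis–Menten fits then provided kcat and KM.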

glucosamine-6-phosphate [2] = variants of: B1; test: self-cleavage kobs at 640 uM GlcN6P; higher = faster cleavage; RNA array
In short: as §1

glucosamine-6-phosphate [3] = variants of: B1; test: self-cleavage kobs at 2500 uM GlcN6P; higher = faster cleavage; RNA array
In short: as §1

glucosamine-6-phosphate [4] = variants of: B1; test: self-cleavage kobs at 10000 uM GlcN6P; higher = faster cleavage; RNA array
In short: as §1

glucosamine-6-phosphate [5] = variants of: B1; test: KM; higher = weaker cofactor use; RNA array
In short: as §1

glucosamine-6-phosphate [6] = variants of: B1; test: self-cleavage kobs at 160 uM GlcN6P; higher = faster cleavage; RNA array
In short: as §1

glucosamine-6-phosphate [7] = variants of: B1; test: self-cleavage kobs at 40 uM GlcN6P; higher = faster cleavage; RNA array
In short: as §1

| Variant | kcat (glucosamine-6-phosphate [1]) [s⁻¹] | self-cleavage kobs at 640 uM GlcN6P (glucosamine-6-phosphate [2]) [s⁻¹] | self-cleavage kobs at 2500 uM GlcN6P (glucosamine-6-phosphate [3]) [s⁻¹] | self-cleavage kobs at 10000 uM GlcN6P (glucosamine-6-phosphate [4]) [s⁻¹] | KM (glucosamine-6-phosphate [5]) [µM] | self-cleavage kobs at 160 uM GlcN6P (glucosamine-6-phosphate [6]) [s⁻¹] | self-cleavage kobs at 40 uM GlcN6P (glucosamine-6-phosphate [7]) [s⁻¹] |
| --- | --- | --- | --- | --- | --- | --- | --- |
| A6U C70G | 3.01e-05 ± 9.6e-06 | 3.81e-05 ± 1.3e-05 | 5.38e-05 ± 1.1e-05 | 1.91e-05 ± 6.9e-06 | – | – | – |
| A39U G41A | 0.00029 ± 1.6e-05 | 0.00014 ± 1.5e-05 | 0.00025 ± 2.7e-05 | 0.000257 ± 3e-05 | 651 ± 93 | 5.88e-05 ± 1.3e-05 | – |
| U45G U56A | 0.00335 ± 0.00043 | 0.000848 ± 0.00019 | 0.00206 ± 0.00051 | – | 1720 ± 280 | 0.000299 ± 6.2e-05 | 7.59e-05 ± 1.8e-05 |
| A36C C58G | 2.16e-05 ± 5.9e-06 | – | – | – | – | – | – |
| C50G U54A | 3.07e-05 ± 1e-05 | – | 5.55e-05 ± 2.3e-05 | – | – | 5.21e-05 ± 1.6e-05 | 2.88e-05 ± 1.2e-05 |
| U31C C70G | 5.96e-05 ± 8.1e-06 | 3.34e-05 ± 7.2e-06 | 6.15e-05 ± 7.8e-06 | 4.89e-05 ± 8.3e-06 | – | – | – |
| G38A C61A G66U U69C C70U | 4.44e-05 ± 6.1e-06 | – | – | – | – | – | – |
| C11U U57A | 1.44e-05 ± 2.1e-06 | – | – | – | – | – | – |
| G51C C68A | < 1e-05 | – | – | – | – | – | < 1e-05 |
| U55G U69G | 7.83e-05 ± 1.5e-05 | 8.9e-05 ± 1.9e-05 | – | 6.23e-05 ± 1.7e-05 | – | 8.02e-05 ± 1.9e-05 | – |
| U30C G32C | 0.000399 ± 5.8e-05 | 5.99e-05 ± 1.9e-05 | 0.000157 ± 3e-05 | 0.0003 ± 3.4e-05 | 3500 ± 1100 | – | – |
| C8A C67A | < 1e-05 | – | < 1e-05 | – | – | < 1e-05 | – |
| C11G A33U | < 1e-05 | – | < 1e-05 | – | – | < 1e-05 | – |
| A14C A15U | 0.000353 ± 2.4e-05 | 5.17e-05 ± 6.8e-06 | 0.000148 ± 1.9e-05 | 0.000256 ± 3.6e-05 | 3640 ± 380 | – | – |
| U30G A53U | 0.00761 ± 0.0027 | 0.0019 ± 0.00032 | 0.00357 ± 0.0007 | 0.00788 ± 0.0011 | – | 0.000465 ± 0.00011 | 0.000261 ± 3.2e-05 |
| A15G G43A | 8.91e-05 ± 1.1e-05 | – | 4.89e-05 ± 1.5e-05 | 7.17e-05 ± 1.4e-05 | 2300 ± 940 | – | < 1e-05 |
| U30G A42U C67G | 0.00016 ± 2.9e-05 | 8.82e-05 ± 2.3e-05 | 0.000107 ± 2.9e-05 | 0.000167 ± 4.5e-05 | – | – | – |
| G44C | 0.0002 ± 2.4e-05 | 4.33e-05 ± 1.8e-06 | 0.000127 ± 2.9e-06 | 0.000159 ± 3.5e-06 | 1980 ± 570 | – | – |
| U65G U69A | 0.000187 ± 3.2e-05 | 5.5e-05 ± 1.2e-05 | 0.000116 ± 2.2e-05 | 0.000174 ± 5.3e-05 | 1450 ± 480 | – | – |
